{"source": "patent US6960343B2", "about": "“Toll/interleukin-1 receptor adapter protein (TIRAP)” (Yale University School of Medicine, priority 2001, dated 2005)", "key": {"[1]": {"target": "T1, TLR9 (Homo sapiens, UniProt Q9NR96)", "T1 construct": "TLR9 (encodes full length TLR9); expressed in transfected cells; host or cells: 293T cells", "T1 sequence (Q9NR96 26-1032)": "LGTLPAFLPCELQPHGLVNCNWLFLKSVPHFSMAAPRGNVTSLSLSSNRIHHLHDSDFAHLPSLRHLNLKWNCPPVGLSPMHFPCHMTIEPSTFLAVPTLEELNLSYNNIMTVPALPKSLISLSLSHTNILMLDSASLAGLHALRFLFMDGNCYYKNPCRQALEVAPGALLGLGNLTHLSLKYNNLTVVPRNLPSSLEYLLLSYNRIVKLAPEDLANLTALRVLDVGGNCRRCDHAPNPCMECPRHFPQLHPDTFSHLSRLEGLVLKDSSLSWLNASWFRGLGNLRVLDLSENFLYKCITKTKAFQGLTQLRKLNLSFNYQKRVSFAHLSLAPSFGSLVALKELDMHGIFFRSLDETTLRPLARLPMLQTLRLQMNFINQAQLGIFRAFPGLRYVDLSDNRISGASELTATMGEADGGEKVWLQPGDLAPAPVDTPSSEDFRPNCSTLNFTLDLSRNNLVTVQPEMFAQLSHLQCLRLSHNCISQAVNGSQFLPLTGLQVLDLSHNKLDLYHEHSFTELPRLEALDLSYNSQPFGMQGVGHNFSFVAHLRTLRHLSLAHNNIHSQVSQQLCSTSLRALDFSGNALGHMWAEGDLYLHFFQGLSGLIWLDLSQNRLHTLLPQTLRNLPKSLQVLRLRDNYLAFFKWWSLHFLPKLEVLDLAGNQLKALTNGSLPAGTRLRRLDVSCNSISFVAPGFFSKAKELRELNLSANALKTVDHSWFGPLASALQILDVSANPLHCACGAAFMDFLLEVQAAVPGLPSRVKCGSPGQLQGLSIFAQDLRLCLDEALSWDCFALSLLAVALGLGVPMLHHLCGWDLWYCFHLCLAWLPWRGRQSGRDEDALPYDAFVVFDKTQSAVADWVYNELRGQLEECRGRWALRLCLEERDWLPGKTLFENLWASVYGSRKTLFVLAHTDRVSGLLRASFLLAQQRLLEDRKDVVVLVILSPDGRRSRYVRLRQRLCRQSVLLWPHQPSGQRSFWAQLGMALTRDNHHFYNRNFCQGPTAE", "assay": "NF-κB activation by CpG stimulation of TLR9-transfected 293T cells", "type": "cell-based", "conditions": "100 ng, 250 ng construct, CpG 3 μM", "protocol": "To determine whether TIRAP inhibits NF-κB activation induced by CpG-stimulation of TLR9-transfected cells, 293T cells were transfected with vector alone (pcDNA3), TLR9 (50 ng), with or without increasing concentrations (100 ng, 250 ng) of either TIRAP P125H or MyD88 DN. At twenty-four h post transfection, CpG oligonucleotides were added at 3 μM final concentration to TLR9-transfected samples and incubated for 14 more hours before harvesting. […] Thus, TIRAP appears to function downstream of TLR4 but not IL-1R or TLR9, and is likely to be the adapter in the MyD88-independent pathway downstream of TLR4."}, "[2]": {"target": "T2, CD4/TLR4 (constitutively active form of TLR4) (UniProt O00206+P06332)", "T2 construct": "CD4 (fusion partner of the chimera); expressed in transfected cells; host or cells: 293T cells", "T2 sequence (P06332+O00206 with tags, fused parts or gaps)": "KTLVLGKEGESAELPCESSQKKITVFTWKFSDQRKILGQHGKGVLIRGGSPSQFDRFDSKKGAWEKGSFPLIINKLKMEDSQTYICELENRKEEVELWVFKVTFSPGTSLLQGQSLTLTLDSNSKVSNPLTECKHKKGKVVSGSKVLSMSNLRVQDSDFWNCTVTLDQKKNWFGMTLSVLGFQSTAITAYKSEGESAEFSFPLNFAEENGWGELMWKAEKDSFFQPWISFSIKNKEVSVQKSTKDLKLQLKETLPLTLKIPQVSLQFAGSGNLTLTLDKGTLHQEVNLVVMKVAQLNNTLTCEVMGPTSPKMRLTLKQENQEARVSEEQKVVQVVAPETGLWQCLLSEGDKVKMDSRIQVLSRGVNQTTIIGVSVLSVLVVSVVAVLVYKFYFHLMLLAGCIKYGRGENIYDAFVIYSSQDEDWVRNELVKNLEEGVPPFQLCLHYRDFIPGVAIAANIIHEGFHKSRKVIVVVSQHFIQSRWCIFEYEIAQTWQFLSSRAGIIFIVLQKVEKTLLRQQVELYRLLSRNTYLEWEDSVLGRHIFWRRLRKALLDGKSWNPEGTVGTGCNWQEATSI", "assay": "CD4/TLR4-mediated NF-κB activation, luciferase reporter, 293T cells", "type": "cell-based", "conditions": "50 ng, 250 ng, 1.0 μg construct", "protocol": "To determine whether TIRAP P125H functions as a dominant negative, 293T cells were transfected with 0.25 μg of vector alone (pcDNA3) or CD4/TLR4 (a vector expressing a constitutively active form of TLR4) with or without increasing concentrations (50 ng, 250 ng, 1.0 μg) of either TIRAP P125H or MyD88 DN (a vector expressing MyD88 containing a proline to histidine mutation at the same position as TIRAP P125H) and the NF-κB-dependent luciferase reporter gene."}}}
{"substance": "TIRAP P125H: vector encoding a mutant form of TIRAP containing a proline to histidine mutation at amino acid position 125", "values": [{"measurement": "inhibition of NF-κB activation induced by CpG-stimulation of TLR9-transfected cells", "setting": "[1]", "value": "did not inhibit"}, {"measurement": "inhibition of NF-κB activation mediated by CD4/TLR4", "setting": "[2]", "value": "strongly inhibited"}]}
